Drawing on PMC7223222, this text covers stoichiometry N for 1 substance.

In the test the target is pmE2:pFc2 fusion protein (transmembrane domain-deleted classical swine fever virus envelope glycopro (classical swine fever virus)). Put plainly: SEC. Background: In gel filtration, larger molecules generally elute earlier.

What is called stoichiometry N is a count of units in the complex or per binding partner.

“pmE2:pFc2 fusion protein (transmembrane domain-deleted classical swine fever virus envelope glycopro (Fc fusion)” came in with a stoichiometry N of 3.
